In general, Kd refers to the constant that tells how readily two partners part at equilibrium. A word on the koff: it is a measure of how fast the partners let go of each other. Read a low koff as slow dissociation. The kon is a measure of how fast the partners come together. A higher kon goes with fast association.

B1: microsomal cytochrome b5 (CYB5A) (natural protein, UniProt P00167 1-134, looked up)
chain: MAEQSDEAVKYYTLEEIQKHNHSKSTWLILHHKVYDLTKFLEEHPGGEEVLREQAGGDATENFEDVGHSTDAREMSKTFIIGELHPDDRPKLNKPPETLITTIDSSSSWWTNWVIPAISAVAVALMYRLYMAED
notes: microsomal cytochrome b5 (CYB5A), recombinant
B2: sulfotransferase SULT2A1 (enzyme, human, UniProt Q06520 1-285, looked up)
chain: MSDDFLWFEGIAFPTMGFRSETLRKVRDEFVIRDEDVIILTYPKSGTNWLAEILCLMHSKGDAKWIQSVPIWERSPWVESEIGYTALSETESPRLFSSHLPIQLFPKSFFSSKAKVIYLMRNPRDVLVSGYFFWKNMKFIKKPKSWEEYFEWFCQGTVLYGSWFDHIHGWMPMREEKNFLLLSYEELKQDTGRTIEKICQFLGKTLEPEELNLILKNSSFQSMKENKMSNYSLLSVDYVVDKAQLLRKGVSGDWKNHFTVAQAEDFDKLFQEKMADLPRELFPWE
notes: cytosolic sulfotransferase SULT2A1, human, recombinant; source: E. coli Rosetta, purified (Ni-NTA agarose, hydroxyapatite)
B3: sulfotransferase SULT1E1 (enzyme, human, UniProt P49888 1-294, looked up)
chain: MNSELDYYEKFEEVHGILMYKDFVKYWDNVEAFQARPDDLVIATYPKSGTTWVSEIVYMIYKEGDVEKCKEDVIFNRIPFLECRKENLMNGVKQLDEMNSPRIVKTHLPPELLPASFWEKDCKIIYLCRNAKDVAVSFYYFFLMVAGHPNPGSFPEFVEKFMQGQVPYGSWYKHVKSWWEKGKSPRVLFLFYEDLKEDIRKEVIKLIHFLERKPSEELVDRIIHHTSFQEMKNNPSTNYTTLPDEIMNQKLSPFMRKGITGDWKNHFTVALNEKFDKHYEQQMKESTLKFRTEI
notes: cytosolic sulfotransferase SULT1E1, human, recombinant; The oligomeric state in the assay is not known to the authors; source: E. coli DH5α, purified (Ni-NTA agarose, hydroxyapatite)

Details in all cases: both partners purified
Experiment [1] addresses B3. Nature of the experiment: SPR; SULT1E1 or SULT2A1 covalently immobilised on CM5 chip via amino groups; CYP17A1full, CYP17A1tr or CYB5A injected at 50 to 5000 nM in HBS-EP+ (10 mM HEPES, 150 mM NaCl, 3 mM EDTA, 0.05% P20, pH 7.4), 25 °C; no PAPS; 1:1 Langmuir model.
The target in experiment [2] is B3. Nature of the experiment: SPR; SULT1E1 or SULT2A1 covalently immobilised on CM5 chip via amino groups; CYP17A1full or CYB5A injected at 50 to 5000 nM in HBS-EP+, 25 °C; with 1 mM PAPS; 1:1 Langmuir model. A general note: In SPR one partner is held on a chip, and binding of the other changes the refractive index at the surface.
In experiment [3] the target is T1, full-length steroid 17-alpha-hydroxylase/17,20-lyase (CYP17A1full) (UniProt P05093 1-508).
T1 construct: steroid 17-alpha-hydroxylase/17,20 lyase (CYP17A1), full-length recombinant form; also called full-length CYP17A1
T1 sequence (looked up): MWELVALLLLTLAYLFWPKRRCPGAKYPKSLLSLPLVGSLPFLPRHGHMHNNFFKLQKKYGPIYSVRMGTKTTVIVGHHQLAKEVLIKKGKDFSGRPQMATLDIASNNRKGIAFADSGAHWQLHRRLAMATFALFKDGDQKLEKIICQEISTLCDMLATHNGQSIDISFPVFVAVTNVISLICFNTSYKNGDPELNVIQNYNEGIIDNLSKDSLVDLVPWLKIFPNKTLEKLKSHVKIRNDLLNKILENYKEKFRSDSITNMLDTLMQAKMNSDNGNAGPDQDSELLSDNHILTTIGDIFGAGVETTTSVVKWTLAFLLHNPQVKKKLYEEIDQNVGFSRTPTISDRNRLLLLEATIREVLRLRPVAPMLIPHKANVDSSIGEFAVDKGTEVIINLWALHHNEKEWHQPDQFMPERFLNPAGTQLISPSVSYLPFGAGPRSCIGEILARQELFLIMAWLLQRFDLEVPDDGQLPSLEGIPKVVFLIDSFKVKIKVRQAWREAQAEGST
Nature of the experiment: SPR; SULT1E1 or SULT2A1 covalently immobilised on CM5 chip via amino groups; CYP17A1full, CYP17A1tr or CYB5A injected at 50 to 5000 nM in HBS-EP+ (10 mM HEPES, 150 mM NaCl, 3 mM EDTA, 0.05% P20, pH 7.4), 25 °C; no PAPS; 1:1 Langmuir model.

For experiment [4], the target named is T2, NADPH-dependent cytochrome P450 reductase (CPR) (UniProt P16435 1-677, FAD and FMN cofactors; species (human assumed, rat possible) and construct limits are only in Figure S5 or cited work). Nature of the experiment: SPR; CPR covalently immobilised on CM5 chip via amino groups; SULT1E1 or SULT2A1 as analyte; HBS-EP+, 25 °C; no PAPS; 1:1 Langmuir model.
T2 sequence (P16435 whole entry): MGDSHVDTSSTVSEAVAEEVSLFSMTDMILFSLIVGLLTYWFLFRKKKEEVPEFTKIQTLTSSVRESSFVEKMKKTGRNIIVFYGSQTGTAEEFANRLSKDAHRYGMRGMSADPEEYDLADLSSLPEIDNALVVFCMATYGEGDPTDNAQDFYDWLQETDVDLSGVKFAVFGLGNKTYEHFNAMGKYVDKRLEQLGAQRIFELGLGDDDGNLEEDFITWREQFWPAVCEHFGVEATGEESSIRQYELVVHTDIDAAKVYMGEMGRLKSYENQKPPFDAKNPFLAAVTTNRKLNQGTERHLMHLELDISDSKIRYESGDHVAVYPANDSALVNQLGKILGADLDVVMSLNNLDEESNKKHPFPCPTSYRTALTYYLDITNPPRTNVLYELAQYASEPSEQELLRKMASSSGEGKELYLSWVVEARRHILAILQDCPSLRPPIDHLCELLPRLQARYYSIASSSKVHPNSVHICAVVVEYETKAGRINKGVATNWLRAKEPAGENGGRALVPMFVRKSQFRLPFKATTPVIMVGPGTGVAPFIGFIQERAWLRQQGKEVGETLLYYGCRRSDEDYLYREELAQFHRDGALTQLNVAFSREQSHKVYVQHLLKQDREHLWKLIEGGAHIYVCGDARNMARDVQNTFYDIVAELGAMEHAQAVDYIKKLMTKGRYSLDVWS
Experiment [5] deals with T2, NADPH-dependent cytochrome P450 …. Nature of the experiment: SPR; CPR covalently immobilised on CM5 chip via amino groups; SULT1E1 or SULT2A1 as analyte; HBS-EP+, 25 °C; with 1 mM PAPS; 1:1 Langmuir model.
Experiment [6] concerns the target T1, full-length steroid …. Nature of the experiment: SPR; SULT1E1 or SULT2A1 covalently immobilised on CM5 chip via amino groups; CYP17A1full or CYB5A injected at 50 to 5000 nM in HBS-EP+, 25 °C; with 1 mM PAPS; 1:1 Langmuir model.

In the experiment with sulfotransferase SULT1E1 [1], B1 came in with a dissociation constant Kd of 71 ± 8 nM, a koff of 0.00098 s⁻¹ and an on-rate (kon) of 13800 M⁻¹ s⁻¹. In the experiment with sulfotransferase SULT1E1 [2], this molecule yielded a dissociation constant (Kd) of 88 ± 8 nM, a koff of 0.00067 s⁻¹ and an association rate constant (kon) of 7650 M⁻¹ s⁻¹.

On to B2, for which the Kd is 124 ± 11 nM in experiment [3], 1370 ± 126 nM in experiment [4], 957 ± 89 nM in experiment [5] and 105 ± 12 nM in experiment [6]. Also, the dissociation rate constant (koff) in experiment [3] amounted to 0.00055 s⁻¹; in experiment [4], 0.00078 s⁻¹; in experiment [5], 0.00051 s⁻¹; in experiment [6], 0.00137 s⁻¹. Also, the kon in experiment [3] was 4450 M⁻¹ s⁻¹; in experiment [4] it was 570 M⁻¹ s⁻¹; in experiment [5] it was 670 M⁻¹ s⁻¹; in experiment [6], 13100 M⁻¹ s⁻¹.

As to B3, in experiment [3], the affinity, expressed as Kd, was 196 ± 21 nM; the dissociation rate constant (koff) was determined as 0.00058 s⁻¹; the kon amounted to 2960 M⁻¹ s⁻¹. Besides, in experiment [6], the Kd stood at 138 ± 15 nM, the off-rate constant (koff) came out at 0.00076 s⁻¹ and the kon was 5520 M⁻¹ s⁻¹.
